{
  "source": "patent US20250340637A1",
  "about": "(ABPRO, published 2025)",
  "binders": {"B1": {"name": "ABP100s.17 (antibody, V domains shown)", "VH": "EVQLVESGGGLVQPGGSLRLSCAASGFTFNTYAMNWVRQAPGKGLEWVARIRSKYNNYATYYADSVKGRFTISRDDSQSSLYLQMNSLKTEDTAVYYCVRHGNFGNSYVSWFAYWGQGTLVTVSS", "VL": "QAVVTQEPSLTVSPGGTVTLTCGSSTGAVTTSNYANWVQQKPGQAFRGLIGGTNKKASWTPARFSGSLLGDKAALTLSGAQPEDEAEYYCALWYSNLWVFGGGTKLTVL"}, "B2": {"name": "ABP100s.16 (antibody, V domains shown)", "VH": "B1 VH with Q13K, S77A, Q78K, K89R, T90A", "VL": "B1 VL with K56R, S58P, L69I, Y89F"}, "B3": {"name": "ABP100s.15 (antibody, V domains shown)", "VH": "B1 VH with Q13K, K89R, T90A", "VL": "B1 VL with K56R, S58P, L69I, Y89F"}, "B4": {"name": "ABP100s.18 (antibody, V domains shown)", "VH": "B1 VH with Q78K", "VL": "B1 VL"}, "B5": {"name": "ABP100s.19 (antibody, V domains shown)", "VH": "B1 VH with Q13K, K89R, T90A", "VL": "B1 VL"}, "B6": {"name": "ABP100s.14 (antibody, V domains shown)", "VH": "B1 VH with Q78K", "VL": "B1 VL with K56R, S58P, L69I, Y89F"}, "B7": {"name": "ABP100s.20 (antibody, V domains shown)", "VH": "B1 VH with Q13K, S77A, Q78K, K89R, T90A", "VL": "B1 VL"}, "B8": {"name": "ABP100s.22 (antibody, V domains shown)", "VH": "B1 VH with Q78K", "VL": "QAVVTQEPSFSVSPGGTVTLTCGSSTGAVTTSNYANWVQQTPGQAFRGLIGGTNKRASGVPDRFSGSLLGDKAALTITGAQADDESDYYCALWYSNLWVFGGGTKLTVL"}, "B9": {"name": "ABP100s.13 (antibody, V domains shown)", "VH": "B1 VH", "VL": "B1 VL with K56R, S58P, L69I, Y89F"}, "B10": {"name": "ABP100s.23 (antibody, V domains shown)", "VH": "B1 VH with Q13K, K89R, T90A", "VL": "B8 VL"}, "B11": {"name": "ABP100s.21 (antibody, V domains shown)", "VH": "B1 VH", "VL": "B8 VL"}, "B12": {"name": "ABP100s.24 (antibody, V domains shown)", "VH": "B1 VH with Q13K, S77A, Q78K, K89R, T90A", "VL": "B8 VL"}, "B13": {"name": "ABP100s.11.0 (antibody, V domains shown)", "VH": "EVQLLESGGGLVQPGGSLRLSCAASGFTFNTYAMNWVRQAPGKGLEWVSRIRSKYNNYATYYADSVKDRFTISRDNSKNTLYLQMNSLRAEDTAVYYCAKHGNFGNSYVSWFAYWGQGTTVTVSS", "VL": "B1 VL with G23R, V38F, F46P, G48T, G51Y, K56R, S58P, D71G"}, "B14": {"name": "ABP100s.11.5 (antibody, V domains shown)", "VH": "B13 VH", "VL": "B1 VL with G23R, V38F, F46P, G48T, G51Y, K56R, S58P, D71G"}, "B15": {"name": "ABP100s.12.5 (antibody, V domains shown)", "VH": "B13 VH with G44C", "VL": "B1 VL with G23R, V38F, F46P, G48T, G51Y, K56R, S58P, D71G, G102C"}, "B16": {"name": "ABP100s.12.0 (antibody, V domains shown)", "VH": "B13 VH with G44C", "VL": "B1 VL with G23R, V38F, F46P, G48T, G51Y, K56R, S58P, D71G, G102C"}, "B17": {"name": "47D10-V7-v5.1 (antibody, V domains shown)", "VH": "B1 VH with R19K, G68D, Q78K, S79N, S80T, L81A, A113G", "VL": "B1 VL with A2T, G23R, K56R, S58P, W59G, T60V, D71G, A80V, E87I, Y89F"}, "B18": {"name": "47D10-V7 x huSP34-v5 (N297A, K322A) (bispecific antibody, V domains shown)", "VH": "B1 VH with R19K, G68D, Q78K, S79N, S80T, L81A", "VL": "QTVVTQEPSLTVSPGGTVTLTCRSSTGAVTTSNYANWVQQKPGQAFRGLIGGTNKRAPGVPARFSGSLLGGKAALTLSGVQPEDEAIYFCALWYSNLWVFGGGTKLEIK", "notes": "The name carries the substitutions N297A, K322A"}, "B19": {"name": "32G4-V8 x huSP34-v5 (bispecific antibody, V domains shown)", "VH": "B1 VH with R19K, G68D, Q78K, S79N, S80T, L81A", "VL": "B18 VL", "notes": "The name reads as 32G4-V8 arm x huSP34-v5 arm"}, "B20": {"name": "47D10-V7 x huSP34-v5 (bispecific antibody, V domains shown)", "VH": "B1 VH with R19K, G68D, Q78K, S79N, S80T, L81A", "VL": "B18 VL", "notes": "The name reads as 47D10-V7 arm x huSP34-v5 arm"}, "B21": {"name": "32G4-V8 x huSP34-v5 (N297A, K322A) (bispecific antibody, V domains shown)", "VH": "B1 VH with R19K, G68D, Q78K, S79N, S80T, L81A", "VL": "B18 VL", "notes": "as for B18"}, "B22": {"name": "32G4-V8-v5.1 (antibody, V domains shown)", "VH": "B1 VH with R19K, G68D, Q78K, S79N, S80T, L81A, A113G", "VL": "B18 VL with E107T, I108V, K109L"}, "B23": {"name": "ABP100s.1 (antibody, V domains shown)", "VH": "B1 VH", "VL": "B8 VL with S58P, L69I, Y89F"}, "B24": {"name": "anti-HER2×CD3 BsAb comprising the anti-CD3 VH and VL sequences of ABP100s.10.0 (bispecific antibody, V domains shown)", "VH 1": "not shown", "VL 1": "not shown", "VH 2": "B1 VH with R19K, G44C, G68D, Q78K, S79N, S80T, L81A", "VL 2": "B18 VL with G102C, E107T, I108V, K109L", "notes": "Only the four variable domains are tied to the tested molecule; also called 10.0 clone; parental construct"}, "B25": {"name": "ABP100s.5.4 (antibody, V domains shown)", "VH": "B1 VH with R19K, G68D, Q78K, S79N, S80T, L81A", "VL": "B18 VL with E107T, I108V, K109L"}, "B26": {"name": "ABP100s.10.2 (antibody, V domains shown)", "VH": "B1 VH with R19K, G44C, G68D, Q78K, S79N, S80T, L81A", "VL": "B18 VL with G102C, E107T, I108V, K109L"}, "B27": {"name": "ABP100s.4 (antibody, V domains shown)", "VH": "B1 VH with Q13K, S77A, Q78K, K89R, T90A", "VL": "B8 VL with S58P, L69I, Y89F"}, "B28": {"name": "ABP100s.5.2 (antibody, V domains shown)", "VH": "B1 VH with R19K, G68D, Q78K, S79N, S80T, L81A, Q117C", "VL": "B18 VL with A45C"}, "B29": {"name": "ABP100s.10.1 (antibody, V domains shown)", "VH": "B1 VH with R19K, G44C, G68D, Q78K, S79N, S80T, L81A", "VL": "B18 VL with G102C, E107T, I108V, K109L"}, "B30": {"name": "ABP100s.5.1 (antibody, V domains shown)", "VH": "B1 VH with R19K, G44C, G68D, Q78K, S79N, S80T, L81A", "VL": "B18 VL with G102C"}, "B31": {"name": "ABP100s.7 (antibody, V domains shown)", "VH": "B1 VH with R19K, P41S, G68D, Q78K, S79N, S80T, L81A", "VL": "B18 VL"}, "B32": {"name": "ABP100s.10.3 (antibody, V domains shown)", "VH": "B1 VH with R19K, G44C, G68D, Q78K, S79N, S80T, L81A", "VL": "B18 VL with G102C, E107T, I108V, K109L"}, "B33": {"name": "ABP100s.6 (antibody, V domains shown)", "VH": "B1 VH with R19K, G68D, Q78K, S79N, S80T, L81A", "VL": "B18 VL with I87E"}, "B34": {"name": "ABP100s.5 (antibody, V domains shown)", "VH": "B1 VH with R19K, G68D, Q78K, S79N, S80T, L81A", "VL": "B18 VL"}, "B35": {"name": "ABP100s.2 (antibody, V domains shown)", "VH": "B1 VH with Q78K", "VL": "B8 VL with S58P, L69I, Y89F"}, "B36": {"name": "ABP100s.3 (antibody, V domains shown)", "VH": "B1 VH with Q13K, K89R, T90A", "VL": "B8 VL with S58P, L69I, Y89F"}},
  "note": "Where a chain is given by its changes, count along the chain named. Names and notes keep the numbering of the source.",
  "data": [
    {"biological_target": "T1, HuCD3E (Homo sapiens, UniProt P07766 23-126, limits assumed)", "T1 construct": "Recombinant analyte in SPR and antigen in ELISA; also called human CD3; human CD3 epsilon", "T1 sequence (P07766 23-126 limits assumed)": "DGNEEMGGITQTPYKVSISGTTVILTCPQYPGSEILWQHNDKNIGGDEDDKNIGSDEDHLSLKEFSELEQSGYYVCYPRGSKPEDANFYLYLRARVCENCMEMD", "assay": "SPR, Biacore 8K; CD3 Affinity column: Hi", "method": "Initially, the affinity measurement of the anti-CD3 clones were determined using a Surface Plasmon Resonance (SPR) biosensor, Biacore 8K (GE Healthcare). The equilibrium dissociation constant (KD) was calculated from the ratio of kd over ka. To determine the contribution of a specific residue to antibody affinity and expression, paratope mapping was performed by screening of NNK libraries. In brief, the VH and VL of the parental antibody were searched by using NCBI Ig-Blast (www.ncbi.nlm.nih.gov/projects/igblast/) and CDRs were defined by the KABAT delineation system. All residues within CDRs were defined and mutated by NNK method. Each individual NNK library was generated per residue based on the FASEBA platform with a theoretical diversity at 20. The DNA encoding both heavy chain and light chain were inserted into a mammalian expression vector, transfected into CHO-S cells, and stable clones of highest expression were selected. Supernatants were collected from shaker flasks and purified on protein A affinity chromatography.\nAffinity ranking. Binding between the parental and affinity-tuned bispecific antibodies and human and cyno target proteins (HER2 and CD3) was validated by ELISA, and a Biacore 8K was used to study the kinetics of the interaction between the antigen and the bispecific antibodies.", "units": {"Kd": "nM"}, "values": [
      {"binder": "B1", "Kd": "< 10"},
      {"binder": "B2", "Kd": "< 10"},
      {"binder": "B3", "Kd": "< 10"},
      {"binder": "B4", "Kd": "< 10"},
      {"binder": "B5", "Kd": "< 10"},
      {"binder": "B6", "Kd": "< 10"},
      {"binder": "B7", "Kd": "< 10"},
      {"binder": "B8", "Kd": "< 10"},
      {"binder": "B9", "Kd": "< 10"},
      {"binder": "B10", "Kd": "< 10"},
      {"binder": "B11", "Kd": "< 10"},
      {"binder": "B12", "Kd": "< 10"}
    ]},
    {"biological_target": "T1, HuCD3E", "assay": "SPR, Biacore 8K; CD3 Affinity column: Hi", "remark": "another data set of the same source", "units": {"Kd": "nM"}, "values": [
      {"binder": "B13", "Kd": "< 10"},
      {"binder": "B14", "Kd": "< 10"},
      {"binder": "B15", "Kd": "< 10"},
      {"binder": "B16", "Kd": "< 10"},
      {"binder": "B17", "Kd": "< 10"},
      {"binder": "B18", "Kd": "< 10"},
      {"binder": "B19", "Kd": "< 10"},
      {"binder": "B20", "Kd": "< 10"},
      {"binder": "B21", "Kd": "< 10"},
      {"binder": "B22", "Kd": "< 10"}
    ]},
    {"biological_target": "T1, HuCD3E", "assay": "SPR, Biacore 8K; CD3 Affinity column: Hi", "remark": "another data set of the same source", "units": {"Kd": "nM"}, "values": [
      {"binder": "B23", "Kd": "< 10"},
      {"binder": "B24", "Kd": "< 10"},
      {"binder": "B25", "Kd": "< 10"},
      {"binder": "B26", "Kd": "< 10"},
      {"binder": "B27", "Kd": "< 10"},
      {"binder": "B28", "Kd": "< 10"},
      {"binder": "B29", "Kd": "< 10"},
      {"binder": "B30", "Kd": "< 10"},
      {"binder": "B31", "Kd": "< 10"},
      {"binder": "B32", "Kd": "< 10"},
      {"binder": "B33", "Kd": "< 10"},
      {"binder": "B34", "Kd": "< 10"},
      {"binder": "B35", "Kd": "< 10"},
      {"binder": "B36", "Kd": "< 10"}
    ]}
  ]
}
